Measurements from publication doi:10.1101/2022.11.10.515920 (bioRxiv, 2022).

Molecular target: the molecule itself
Experiment: SEC

Protein | stoichiometry N
glucose oxidase expressed in BY-2 lysate (enzyme) LPHYIRSNGIEASLLTDPKDVSGRTVDYIIAGGGLTGLTTAARLTENPNISVLVIESGSYESDRGPIIEDLNAYGDIFGSSVDHAYETVELATNNQTALIRSGNGLGGSTLVNGGTWTRPHKAQVDSWETVFGNEGWNWDNVAAYSLQAERARAPNAKQIAAGHYFNASCHGVNGTVHAGPRDTGDDYSPIVKALMSAVEDRGVPTKKDFGCGDPHGVSMFPNTLHEDQVRSDAAREWLLPNYQRPNLQVLTGQYVGKVLLSQNGTTPRAVGVEFGTHKGNTHNVYAKHEVLLAAGSAVSPTILEYSGIGMKSILEPLGIDTVVDLPVGLNLQDQTTATVRSRITSAGAGQGQAAWFATFNETFGDYSEKAHELLNTKLEQWAEEAVARGGFHNTTALLIQYENYRDWIVNHNVAYSELFLDTAGVASFDVWDLLPFTRGYVHILDKDPYLHHFAYDPQYFLNELDLLGQAAATQLARNISNSGAMQTYFAGETIPGDNLAYDADLSAWTEYIPYHFRPNYHGVGTCSMMPKEMGGVVDNAARVYGVQGLRVIDGSIPPTQMSSHVMTVFYAMALKISDAILEDYASMQ | 2
glucose oxidase, commercial standard purified from Aspergillus niger (enzyme) LPHYIRSNGIEASLLTDPKDVSGRTVDYIIAGGGLTGLTTAARLTENPNISVLVIESGSYESDRGPIIEDLNAYGDIFGSSVDHAYETVELATNNQTALIRSGNGLGGSTLVNGGTWTRPHKAQVDSWETVFGNEGWNWDNVAAYSLQAERARAPNAKQIAAGHYFNASCHGVNGTVHAGPRDTGDDYSPIVKALMSAVEDRGVPTKKDFGCGDPHGVSMFPNTLHEDQVRSDAAREWLLPNYQRPNLQVLTGQYVGKVLLSQNGTTPRAVGVEFGTHKGNTHNVYAKHEVLLAAGSAVSPTILEYSGIGMKSILEPLGIDTVVDLPVGLNLQDQTTATVRSRITSAGAGQGQAAWFATFNETFGDYSEKAHELLNTKLEQWAEEAVARGGFHNTTALLIQYENYRDWIVNHNVAYSELFLDTAGVASFDVWDLLPFTRGYVHILDKDPYLHHFAYDPQYFLNELDLLGQAAATQLARNISNSGAMQTYFAGETIPGDNLAYDADLSAWTEYIPYHFRPNYHGVGTCSMMPKEMGGVVDNAARVYGVQGLRVIDGSIPPTQMSSHVMTVFYAMALKISDAILEDYASMQ | 2
